This is an account of results in patent publication US20250074949A1 (BRIGHAM AND WOMEN S HOSPITAL, published 2025).

For the assay, the target named is T1, mouse LY6A (mouse, UniProt P05533 27-112).
T1 construct: whole, on cells
T1 sequence: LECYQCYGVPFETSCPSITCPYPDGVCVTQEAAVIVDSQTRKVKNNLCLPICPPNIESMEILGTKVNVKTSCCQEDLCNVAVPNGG
The assay can be described thus: AAV binding to LY6A-transfected HEK293T cells on ice, bound viral genomes counted by qPCR. Background: Quantitative PCR measures a nucleic acid by following its amplification.

B1: AAV.CPP.16 (other)
chain: MAADGYLPDWLEDNLSEGIREWWALKPGAPQPKANQQHQDNARGLVLPGYKYLGPGNGLDKGEPVNAADAAALEHDKAYDQQLKAGDNPYLKYNHADAEFQERLKEDTSFGGNLGRAVFQAKKRLLEPLGLVEEAAKTAPGKKRPVEQSPQEPDSSAGIGKSGAQPAKKRLNFGQTGDTESVPDPQPIGEPPAAPSGVGSLTMASGGGAPVADNNEGADGVGSSSGNWHCDSQWLGDRVITTSTRTWALPTYNNHLYKQISNSTSGGSSNDNAYFGYSTPWGYFDFNRFHCHFSPRDWQRLINNNWGFRPKRLNFKLFNIQVKEVTDNNGVKTIANNLTSTVQVFTDSDYQLPYVLGSAHEGCLPPFPADVFMIPQYGYLTLNDGSQAVGRSSFYCLEYFPSQMLRTGNNFQFSYEFENVPFHSSYAHSQSLDRLMNPLIDQYLYYLSKTINGSGQNQQTLKFSVAGPSNMAVQGRNYIPGPSYRQQRVSTTVTQNNNSEFAWPGASSWALNGRNSLMNPGPAMASHKEGEDRFFPLSGSLIFGKQGTGRDNVDADKVMITNEEEIKTTNPVATESYGQVATNHQSAQTVSALKAQAQTGWVQNQGILPGMVWQDRDVYLQGPIWAKIPHTDGNFHPSPLMGGFGMKHPPPQILIKNTPVPADPPTAFNKDKLNSFITQYSTGQVSVEIEWELQKENSKRWNPEIQYTSNYYKSNNVEFAVNTEGVYSEPRPIGTRYLTRNL
notes: Whole recombinant AAV particle in the assay; also called Bip2.1 insert TVSALK
Turning to B1, the binding result was “no binding (tested: MOI of 10000)”.

B2: AAV.CPP.21 (other)
chain: MAADGYLPDWLEDNLSEGIREWWALKPGAPQPKANQQHQDNARGLVLPGYKYLGPGNGLDKGEPVNAADAAALEHDKAYDQQLKAGDNPYLKYNHADAEFQERLKEDTSFGGNLGRAVFQAKKRLLEPLGLVEEAAKTAPGKKRPVEQSPQEPDSSAGIGKSGAQPAKKRLNFGQTGDTESVPDPQPIGEPPAAPSGVGSLTMASGGGAPVADNNEGADGVGSSSGNWHCDSQWLGDRVITTSTRTWALPTYNNHLYKQISNSTSGGSSNDNAYFGYSTPWGYFDFNRFHCHFSPRDWQRLINNNWGFRPKRLNFKLFNIQVKEVTDNNGVKTIANNLTSTVQVFTDSDYQLPYVLGSAHEGCLPPFPADVFMIPQYGYLTLNDGSQAVGRSSFYCLEYFPSQMLRTGNNFQFSYEFENVPFHSSYAHSQSLDRLMNPLIDQYLYYLSKTINGSGQNQQTLKFSVAGPSNMAVQGRNYIPGPSYRQQRVSTTVTQNNNSEFAWPGASSWALNGRNSLMNPGPAMASHKEGEDRFFPLSGSLIFGKQGTGRDNVDADKVMITNEEEIKTTNPVATESYGQVATNHQSAQTVSALFKAQAQTGWVQNQGILPGMVWQDRDVYLQGPIWAKIPHTDGNFHPSPLMGGFGMKHPPPQILIKNTPVPADPPTAFNKDKLNSFITQYSTGQVSVEIEWELQKENSKRWNPEIQYTSNYYKSNNVEFAVNTEGVYSEPRPIGTRYLTRNL
notes: Whole recombinant AAV particle in the assay; also called Bip2.6 insert TVSALFK
Consider B2, for which the binding result is reported as “no binding (tested: MOI of 10000)”.
